# Laboratory results published in patent publication US20190270826A1 (Janssen / Centocor, published 2019).
# Numbering of substitutions follows the chain as printed.
# T1: recombinant cyno IL1RAP ECD (cynomolgus monkey, UniProt P59822 21-367 (rhesus entry))
# T1 construct: also called rcynoIL1RAP
# T1 sequence: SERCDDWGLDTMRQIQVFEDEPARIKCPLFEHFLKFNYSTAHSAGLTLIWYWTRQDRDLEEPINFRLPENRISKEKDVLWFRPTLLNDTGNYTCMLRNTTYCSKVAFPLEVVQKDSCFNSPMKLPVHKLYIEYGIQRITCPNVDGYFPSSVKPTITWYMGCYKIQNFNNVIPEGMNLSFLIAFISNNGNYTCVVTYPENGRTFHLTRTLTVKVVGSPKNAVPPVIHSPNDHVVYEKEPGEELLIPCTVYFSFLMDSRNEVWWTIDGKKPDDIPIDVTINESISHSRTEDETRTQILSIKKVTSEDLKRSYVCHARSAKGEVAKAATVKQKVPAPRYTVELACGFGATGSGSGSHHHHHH
# T2: recombinant human IL1RAP ECD (human, UniProt Q9NPH3 21-367)
# T2 construct: His-tagged; also called hIL1RAP-ECD; rhuIL1RAP
# T2 sequence: T1 sequence with F183L, P273T, T326K
# T3: cyno IL1RAP ECD displayed on HEK-293F cells (pDisplay) (cynomolgus monkey, UniProt P59822 21-367 (rhesus entry))
# T3 sequence: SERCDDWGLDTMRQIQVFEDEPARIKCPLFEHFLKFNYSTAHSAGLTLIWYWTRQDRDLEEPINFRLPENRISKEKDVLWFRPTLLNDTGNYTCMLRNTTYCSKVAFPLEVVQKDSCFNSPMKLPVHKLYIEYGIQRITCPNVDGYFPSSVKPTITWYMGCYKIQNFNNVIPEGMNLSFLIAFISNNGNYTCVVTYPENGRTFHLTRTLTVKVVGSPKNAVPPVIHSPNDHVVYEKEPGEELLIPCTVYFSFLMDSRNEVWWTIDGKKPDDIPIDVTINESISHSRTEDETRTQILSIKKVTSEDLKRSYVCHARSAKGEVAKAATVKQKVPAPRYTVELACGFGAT
# T4: human IL1RAP on cells (endogenous) (human, UniProt Q9NPH3 21-570)
# T4 sequence (looked up): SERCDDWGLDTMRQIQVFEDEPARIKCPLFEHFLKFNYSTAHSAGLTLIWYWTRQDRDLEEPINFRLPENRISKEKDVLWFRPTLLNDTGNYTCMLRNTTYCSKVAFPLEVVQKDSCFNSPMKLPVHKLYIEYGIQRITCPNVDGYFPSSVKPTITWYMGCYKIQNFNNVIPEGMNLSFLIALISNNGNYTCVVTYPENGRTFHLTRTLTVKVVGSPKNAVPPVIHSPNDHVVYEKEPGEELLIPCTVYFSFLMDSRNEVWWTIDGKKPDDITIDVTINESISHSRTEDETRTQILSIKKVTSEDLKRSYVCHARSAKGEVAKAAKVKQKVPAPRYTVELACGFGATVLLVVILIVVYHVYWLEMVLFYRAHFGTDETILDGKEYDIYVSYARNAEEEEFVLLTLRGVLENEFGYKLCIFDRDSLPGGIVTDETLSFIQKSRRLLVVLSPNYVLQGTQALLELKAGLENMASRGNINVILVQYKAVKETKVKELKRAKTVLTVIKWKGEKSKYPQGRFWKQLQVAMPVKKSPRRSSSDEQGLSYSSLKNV
# B1: IAPB03 (antibody, human IgG4 S228P, kappa, F234A L235A, V domains shown)
# VH: QVQLVQSGAEVKKPGSSVKVSCKASGGTFSSYAISWVRQAPGQGLEWMGGISAIFGTANYAQKFQGRVTITADESTSTAYMELSSLRSEDTAVYYCARGNSFHALWDYAFDYWGQGTLVTVSS
# VL: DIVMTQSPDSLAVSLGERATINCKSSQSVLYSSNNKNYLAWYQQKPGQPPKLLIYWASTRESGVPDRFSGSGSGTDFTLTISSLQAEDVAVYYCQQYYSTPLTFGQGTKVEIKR
# notes: IgG4-PAA; the entries called VH/VL are whole chains; also called IAPB3
# B2: IAPB23 (antibody, human IgG4 S228P, kappa, F234A L235A, V domains shown)
# VH: EVQLLESGGGLVQPGGSLRLSCAASGFTFSNYWMNWVRQAPGKGLEWVSAIRYDGGSKYYADSVKGRFTISRDNSKNTLYLQMNSLRAEDTAVYYCAKDAYPPYSFDYWGQGTLVTVSS
# VL: EIVLTQSPATLSLSPGERATLSCRASQSVSSYLAWYQQKPGQAPRLLIYDASNRATGIPARFSGSGSGTDFTLTISSLEPEDFAVYYCQQRSNWPLTFGQGTKVEIKR
# notes: IgG4-PAA; whole chains
# B3: IAPB55 (antibody, human IgG4 S228P, kappa, F234A L235A, V domains shown)
# VH: QLQLQESGPGLVKPSETLSLTCTVSGVSISSSTYYWGWLRQPPGMGLEWTGSIYFTGNTYYNPSLKSRVTISVDTSRNQFSLKLSSVTAADTAVYYCGSLFGDYGYFDYWGQGTLVTVSS
# VL: EIVMTQSPATLSVSPGERATLSCRASQFISSNLAWYQQKPGQAPRLLIYGASTRATGIPARFSGSGSGTDFTLTISSLQSEDFAVYYCQQYNNWPFTFGPGTKVDIKR
# notes: IgG4-PAA; whole chains
# B4: IAPB61 (antibody, human IgG4 S228P, kappa, F234A L235A, V domains shown)
# VH: B3 VH
# VL: B3 VL with S14P, F96S
# notes: IgG4-PAA; whole chains
# B5: IC3B3 (bispecific antibody, human IgG4 S228P, kappa, lambda, F234A L235A)
# heavy 1: EVQLVESGGGLVQPGGSLKLSCAASGFTFNTYAMNWVRQASGKGLEWVGRIRSKYNAYATYYAASVKGRFTISRDDSKNTAYLQMNSLKTEDTAVYYCTRHGNFGNSYVSWFAYWGQGTLVTVSSASTKGPSVFPLAPCSRSTSESTAALGCLVKDYFPEPVTVSWNSGALTSGVHTFPAVLQSSGLYSLSSVVTVPSSSLGTKTYTCNVDHKPSNTKVDKRVESKYGPPCPPCPAPEAAGGPSVFLFPPKPKDTLMISRTPEVTCVVVDVSQEDPEVQFNWYVDGVEVHNAKTKPREEQFNSTYRVVSVLTVLHQDWLNGKEYKCKVSNKGLPSSIEKTISKAKGQPREPQVYTLPPSQEEMTKNQVSLTCLVKGFYPSDIAVEWESNGQPENNYKTTPPVLDSDGSFLLYSKLTVDKSRWQEGNVFSCSVMHEALHNHYTQKSLSLSLGK
# light 1: QAVVTQEPSLTVSPGGTVTLTCRSSTGAVTTSNYANWVQQKPGQAPRGLIGGTNKRAPGTPARFSGSLLGGKAALTLSGAQPEDEAEYYCALWYSNLWVFGGGTKLTVLGQPKAAPSVTLFPPSSEELQANKATLVCLISDFYPGAVTVAWKADSSPVKAGVETTTPSKQSNNKYAASSYLSLTPEQWKSHRSYSCQVTHEGSTVEKTVAPTECS
# heavy 2: not shown
# light 2: DIQLTQSPSFLSASVGDRVTITCRASQGISSYLAWYQQKPGKAPKLLIYAASTLQSGVPSRFSGSGSGTEFTLTISSLQPEDFATYYCQQVNSYPLTFGGGTKVEIKRTVAAPSVFIFPPSDEQLKSGTASVVCLLNNFYPREAKVQWKVDNALQSGNSQESVTEQDSKDSTYSLSSTLTLSKADYEKHKVYACEVTHQGLSSPVTKSFNRGEC
# notes: IgG4-PAA, Fab arm exchange; also called IAPB57 x CD3B220
# B6: IC3B6 (bispecific antibody, human IgG4 S228P, kappa, lambda, F234A L235A)
# heavy 1: B5 heavy 1
# light 1: B5 light 1
# heavy 2: not shown
# light 2: not shown
# notes: IgG4-PAA, Fab arm exchange; also called IAPB3 x CD3B220
# B7: IC3B15 (bispecific antibody, human IgG4 S228P, kappa, lambda, F234A L235A)
# heavy 1: B5 heavy 1
# light 1: B5 light 1
# heavy 2: not shown
# light 2: not shown
# notes: IgG4-PAA, Fab arm exchange; also called IAPB65 x CD3B220
# Biological target: T1, recombinant cyno IL1RAP ECD
# Test: recombinant protein
row,Binder,binding result
1,B1,binds
2,B2,binds
3,B3,binds
4,B4,binds

# Biological target: T2, recombinant human IL1RAP ECD
# Test: SPR (ProteOn)
# Experimental: The rates of IL1RAP ECD association and dissociation were measured for each variant. The biosensor surface was prepared by covalently coupling Goat anti-Human IgG (Fc) to the surface of a GLC chip (BioRad) using the manufacturer instructions for amine-coupling chemistry. […] The RU immobilized also included a goat anti-mouse Fc antibody that was added to capture other antibodies not included in the ones reported here. Since the mixture was 1:1 about 50% of these RU immobilized are expected to be goat anti-human Fc. The kinetic experiments were performed at 25° C. in running buffer (PBS pH 7.4, 0.005% P20, 3 mM EDTA). […] (1:3) serial dilutions of human IL1RAP ECD, starting at 400 nM were prepared in running buffer. […] The reference spots (Goat anti-Human IgG (Fc)-modified surface) containing no candidate captured were used as a reference surface. Capture of mAb was followed by a 3 minute injection (association phase) of antigen at 40 μL/min, followed by 10 minutes of buffer flow (dissociation phase). […] Data was processed on the instrument software. Double reference subtraction of the data was performed by subtracting the curves generated by buffer injection from the reference-subtracted curves for analyte injections. Kinetic analysis of the data was performed using 1:1 Langmuir binding model with group fit.
Binder,Kd [nM],koff [s⁻¹],kon [M⁻¹ s⁻¹]
B1,2.64,0.000357,135000
B2,4.7,0.00149,317000

# Biological target: T2, recombinant human IL1RAP ECD
# Test: SPR, summary
row,Binder,Kd [nM]
1,B1,2.64
2,B2,4.7
3,B3,1.64
4,B4,17.5

# Biological target: T2, recombinant human IL1RAP ECD
# Test: SPR; human KD over cyno KD
row,Binder,Hu/Cyno KD Ratio
1,B5,0.4
2,B6,0.8
3,B7,1.3

# Biological target: T2, recombinant human IL1RAP ECD
# Test: SPR
Binder,Kd [nM],koff [s⁻¹],kon [M⁻¹ s⁻¹]
B5,0.034,2.98e-05,875000
B6,2.29,0.000381,167000
B7,11.5,0.00395,343000

# Biological target: T1, recombinant cyno IL1RAP ECD
# Test: SPR
Binder,Kd [nM],koff [s⁻¹],kon [M⁻¹ s⁻¹]
B5,0.0861,8.2e-05,952000
B6,2.99,0.00054,180000
B7,9.08,0.00344,379000

# Biological target: T3, cyno IL1RAP ECD displayed on HEK-293F …
# Test: HEK-293F cells (MSD)
row,Binder,binding result
1,B1,binds
2,B2,binds
3,B3,binds
4,B4,binds

# Biological target: T2, recombinant human IL1RAP ECD
# Test: SPR
# Remark: another data set of the same source
row,Binder,Kd [nM]
1,B5,0.034
2,B6,2.29
3,B7,11.5

# Biological target: T1, recombinant cyno IL1RAP ECD
# Test: SPR
# Remark: another data set of the same source
row,Binder,Kd [nM]
1,B5,0.0861
2,B6,2.99
3,B7,9.08

# Biological target: T4, human IL1RAP on cells (endogenous)
# Test: cell-based or functional assay
row,Binder,"EC50, T-cell mediated cytotoxicity [nM]"
1,B5,0.131
2,B6,0.49
3,B7,0.94

# Biological target: T2, recombinant human IL1RAP ECD
# Test: SPR, summary
# Remark: another data set of the same source
row,Binder,Kd [nM]
1,B5,0.034
2,B6,2.29
3,B7,11.5

# Biological target: T1, recombinant cyno IL1RAP ECD
# Test: SPR, summary
row,Binder,Kd [nM]
1,B5,0.086
2,B6,2.99
3,B7,9.08
